Molecular target: BchNB (NB-protein of DPOR) from Rhodobacter sphaeroides (Rhodobacter sphaeroides)

kobs of Pchlide reduction measured as Chlide formation (with BchNB, Pchlide and ATP): 0.0148 µM/min
Substance: linked-BchL (two BchL subunits expressed as a single polypeptide, joined by a flexible linker) (enzyme)

Source: PMC7948495, “The flexible N-terminus of BchL autoinhibits activity through interaction with its [4Fe-4S] cluster and released upon ATP binding” (The Journal of Biological Chemistry, 2020)
